Experimental data published in IntAct's records for PubMed 25416956.

B1: Proton-coupled zinc antiporter SLC30A8 (Homo sapiens), Q8IWU4 (parent)
chain: MEFLERTYLVNDKAAKMYAFTLESVELQQKPVNKDQCPRERPEELESGGMYHCHSGSKPTEKGANEYAYAKWKLCSASAICFIFMIAEVVGGHIAGSLAVVTDAAHLLIDLTSFLLSLFSLWLSSKPPSKRLTFGWHRAEILGALLSILCIWVVTGVLVYLACERLLYPDYQIQATVMIIVSSCAVAANIVLTVVLHQRCLGHNHKEVQANASVRAAFVHALGDLFQSISVLISALIIYFKPEYKIADPICTFIFSILVLASTITILKDFSILLMEGVPKSLNYSGVKELILAVDGVLSVHSLHIWSLTMNQVILSAHVATAASRDSQVVRREIAKALSKSFTMHSLTIQMESPVDQDPDCLFCEDPCD
partner: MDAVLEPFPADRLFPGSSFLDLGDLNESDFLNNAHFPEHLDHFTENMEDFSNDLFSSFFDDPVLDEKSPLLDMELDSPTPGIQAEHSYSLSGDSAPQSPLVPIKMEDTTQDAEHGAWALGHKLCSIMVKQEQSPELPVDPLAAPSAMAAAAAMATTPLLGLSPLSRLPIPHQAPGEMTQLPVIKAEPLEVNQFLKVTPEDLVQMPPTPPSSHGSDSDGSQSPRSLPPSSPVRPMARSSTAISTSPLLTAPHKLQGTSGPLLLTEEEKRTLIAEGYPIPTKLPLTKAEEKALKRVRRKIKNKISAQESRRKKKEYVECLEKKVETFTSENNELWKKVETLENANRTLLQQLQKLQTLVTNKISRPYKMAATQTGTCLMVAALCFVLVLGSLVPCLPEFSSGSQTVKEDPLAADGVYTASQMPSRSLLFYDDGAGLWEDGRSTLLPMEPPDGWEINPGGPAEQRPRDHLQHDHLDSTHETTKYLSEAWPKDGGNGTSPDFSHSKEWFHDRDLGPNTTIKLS
B2: Beta-crystallin A4 (Homo sapiens), P53673 (parent)
chain: MTLQCTKSAGPWKMVVWDEDGFQGRRHEFTAECPSVLELGFETVRSLKVLSGAWVGFEHAGFQGQQYILERGEYPSWDAWGGNTAYPAERLTSFRPAACANHRDSRLTIFEQENFLGKKGELSDDYPSLQAMGWEGNEVGSFHVHSGAWVCSQFPGYRGFQYVLECDHHSGDYKHFREWGSHAPTFQVQSIRRIQQ
partner: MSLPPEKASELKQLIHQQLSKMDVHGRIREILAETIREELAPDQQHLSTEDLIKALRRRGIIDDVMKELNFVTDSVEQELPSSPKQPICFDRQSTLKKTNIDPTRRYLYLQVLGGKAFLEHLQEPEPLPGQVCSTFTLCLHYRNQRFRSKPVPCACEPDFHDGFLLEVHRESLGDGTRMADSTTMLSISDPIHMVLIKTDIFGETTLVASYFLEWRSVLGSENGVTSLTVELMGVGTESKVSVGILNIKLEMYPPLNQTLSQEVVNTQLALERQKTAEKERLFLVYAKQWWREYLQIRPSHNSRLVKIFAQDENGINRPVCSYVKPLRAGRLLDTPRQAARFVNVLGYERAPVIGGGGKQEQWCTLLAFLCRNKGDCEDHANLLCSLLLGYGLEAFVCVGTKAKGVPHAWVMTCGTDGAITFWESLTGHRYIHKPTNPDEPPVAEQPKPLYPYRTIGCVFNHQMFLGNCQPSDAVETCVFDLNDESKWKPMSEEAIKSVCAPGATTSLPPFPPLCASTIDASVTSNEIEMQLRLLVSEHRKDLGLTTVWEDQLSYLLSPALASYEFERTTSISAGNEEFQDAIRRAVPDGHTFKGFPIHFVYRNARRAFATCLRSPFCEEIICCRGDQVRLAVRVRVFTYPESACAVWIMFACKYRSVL
B3: Keratin, type II cytoskeletal 6A (Homo sapiens), P02538 (parent)
chain: MASTSTTIRSHSSSRRGFSANSARLPGVSRSGFSSVSVSRSRGSGGLGGACGGAGFGSRSLYGLGGSKRISIGGGSCAISGGYGSRAGGSYGFGGAGSGFGFGGGAGIGFGLGGGAGLAGGFGGPGFPVCPPGGIQEVTVNQSLLTPLNLQIDPTIQRVRAEEREQIKTLNNKFASFIDKVRFLEQQNKVLETKWTLLQEQGTKTVRQNLEPLFEQYINNLRRQLDSIVGERGRLDSELRGMQDLVEDFKNKYEDEINKRTAAENEFVTLKKDVDAAYMNKVELQAKADTLTDEINFLRALYDAELSQMQTHISDTSVVLSMDNNRNLDLDSIIAEVKAQYEEIAQRSRAEAESWYQTKYEELQVTAGRHGDDLRNTKQEIAEINRMIQRLRSEIDHVKKQCANLQAAIADAEQRGEMALKDAKNKLEGLEDALQKAKQDLARLLKEYQELMNVKLALDVEIATYRKLLEGEECRLNGEGVGQVNISVVQSTVSSGYGGASGVGSGLGLGGGSSYSYGSGLGVGGGFSSSSGRAIGGGLSSVGGGSSTIKYTTTSSSSRKSYKH
partner: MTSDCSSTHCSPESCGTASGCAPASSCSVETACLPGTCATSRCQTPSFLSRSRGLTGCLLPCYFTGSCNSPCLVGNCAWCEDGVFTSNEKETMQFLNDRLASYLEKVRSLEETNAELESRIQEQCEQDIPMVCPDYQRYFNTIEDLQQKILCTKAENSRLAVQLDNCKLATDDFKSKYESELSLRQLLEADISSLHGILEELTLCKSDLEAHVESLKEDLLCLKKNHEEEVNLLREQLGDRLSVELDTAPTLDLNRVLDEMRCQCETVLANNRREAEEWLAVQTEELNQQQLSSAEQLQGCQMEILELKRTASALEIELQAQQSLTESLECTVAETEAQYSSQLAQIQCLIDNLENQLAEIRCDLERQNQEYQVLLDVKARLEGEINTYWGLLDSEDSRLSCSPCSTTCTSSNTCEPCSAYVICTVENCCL
B4: Keratin, type II cytoskeletal 6A (Homo sapiens), P02538 (parent)
chain: B3 chain
partner: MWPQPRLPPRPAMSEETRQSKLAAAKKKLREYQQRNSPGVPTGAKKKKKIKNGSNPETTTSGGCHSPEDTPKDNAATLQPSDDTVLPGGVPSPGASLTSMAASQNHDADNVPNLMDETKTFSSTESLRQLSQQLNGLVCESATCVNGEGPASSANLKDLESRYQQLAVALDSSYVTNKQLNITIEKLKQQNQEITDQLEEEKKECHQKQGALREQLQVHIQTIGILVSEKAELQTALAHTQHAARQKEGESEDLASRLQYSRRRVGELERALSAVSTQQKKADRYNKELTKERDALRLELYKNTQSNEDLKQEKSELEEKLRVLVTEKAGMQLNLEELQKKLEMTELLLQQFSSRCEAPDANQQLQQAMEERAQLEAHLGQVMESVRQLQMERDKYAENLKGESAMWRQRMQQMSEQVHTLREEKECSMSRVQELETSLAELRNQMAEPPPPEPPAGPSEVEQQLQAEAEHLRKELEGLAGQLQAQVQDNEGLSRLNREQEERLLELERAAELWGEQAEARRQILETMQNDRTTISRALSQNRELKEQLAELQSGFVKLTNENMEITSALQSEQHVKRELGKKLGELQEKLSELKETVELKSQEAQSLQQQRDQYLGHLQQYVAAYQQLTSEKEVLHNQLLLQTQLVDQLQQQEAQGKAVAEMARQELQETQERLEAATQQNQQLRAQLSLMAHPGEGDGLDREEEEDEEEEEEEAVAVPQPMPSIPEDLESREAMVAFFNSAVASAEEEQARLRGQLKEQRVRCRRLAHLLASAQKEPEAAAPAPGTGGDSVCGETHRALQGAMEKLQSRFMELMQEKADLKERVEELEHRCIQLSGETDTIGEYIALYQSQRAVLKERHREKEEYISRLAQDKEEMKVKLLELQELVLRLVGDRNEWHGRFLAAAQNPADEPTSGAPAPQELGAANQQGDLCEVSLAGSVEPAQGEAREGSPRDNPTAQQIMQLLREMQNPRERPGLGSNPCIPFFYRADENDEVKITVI
B5: Inactive peptidyl-prolyl cis-trans isomerase FKBP6 (Homo sapiens), O75344 (parent)
chain: MGGSALNQGVLEGDDAPGQSLYERLSQRMLDISGDRGVLKDVIREGAGDLVAPDASVLVKYSGYLEHMDRPFDSNYFRKTPRLMKLGEDITLWGMELGLLSMRRGELARFLFKPNYAYGTLGCPPLIPPNTTVLFEIELLDFLDCAESDKFCALSAEQQDQFPLQKVLKVAATEREFGNYLFRQNRFYDAKVRYKRALLLLRRRSAPPEEQHLVEAAKLPVLLNLSFTYLKLDRPTIALCYGEQALIIDQKNAKALFRCGQACLLLTEYQKARDFLVRAQKEQPFNHDINNELKKLASCYRDYVDKEKEMWHRMFAPCGDGSTAGES
partner: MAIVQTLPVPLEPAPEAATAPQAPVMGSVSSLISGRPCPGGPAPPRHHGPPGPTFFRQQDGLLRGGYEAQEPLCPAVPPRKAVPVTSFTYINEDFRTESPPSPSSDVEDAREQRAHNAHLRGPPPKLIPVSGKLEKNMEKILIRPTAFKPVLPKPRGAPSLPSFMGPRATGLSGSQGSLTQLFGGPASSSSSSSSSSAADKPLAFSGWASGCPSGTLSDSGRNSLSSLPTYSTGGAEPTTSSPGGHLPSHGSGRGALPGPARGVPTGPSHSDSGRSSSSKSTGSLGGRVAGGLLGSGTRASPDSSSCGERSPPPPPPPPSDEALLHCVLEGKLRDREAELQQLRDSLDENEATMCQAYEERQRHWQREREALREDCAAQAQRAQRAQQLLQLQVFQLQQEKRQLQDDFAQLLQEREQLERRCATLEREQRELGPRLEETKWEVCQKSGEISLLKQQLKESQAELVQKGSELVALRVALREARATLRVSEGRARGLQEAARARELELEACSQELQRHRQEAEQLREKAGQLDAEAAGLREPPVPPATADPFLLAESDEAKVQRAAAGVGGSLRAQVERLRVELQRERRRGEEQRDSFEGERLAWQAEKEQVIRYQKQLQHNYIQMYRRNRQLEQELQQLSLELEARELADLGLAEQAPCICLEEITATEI

Variants of: B1
Settings: with cr3l1_human CREB3L1, Q96BA8
E276W was tested, and the “effect of a mutation on the interaction” value was “disrupting interaction”.

Variants of: B2
Settings: with cep76_human CEP76, Q8TAP6
L69P was tested, and the “effect of a mutation on the interaction” value was “disrupting interaction”.

Variants of: B2
Settings: with cep76_human CEP76, Q8TAP6
Remark: another data set of the same source
V36M was tested, and the “effect of a mutation on the interaction” value was “disrupting interaction”.

Variants of: B2
Settings: with cep76_human CEP76, Q8TAP6
Remark: another data set of the same source
In the case of F94S, the “effect of a mutation on the interaction” value is reported as “disrupting interaction”.

Variants of: B3
Settings: with KRT40, Q6A162
A463P was tested, and the “effect of a mutation on the interaction” value was “disrupting interaction”.

Variants of: B3
Settings: with KRT40, Q6A162
Remark: another data set of the same source
With I462S the “effect of a mutation on the interaction” value was “disrupting interaction”.

Variants of: B4
Settings: with goga2_human GOLGA2, Q08379
N171K was tested, and the “effect of a mutation on the interaction” value was “disrupting interaction”.

Variants of: B5
Settings: with lzts2_human LZTS2, Q9BRK4
In the case of F72L, the “effect of a mutation on the interaction” value is reported as “disrupting interaction”.
